Results as given in patent publication US20090300802A1 (WASHINGTON STATE UNIVERSITY RESEARCH FOUNDATION, published 2009).
No end group written: not given here. *: point of attachment. APDP = N-(4-[p-azidosalicylamido]butyl)-3'-(2'-pyridyldithio)propionamide, photoaffinity cross-linker coupled via disulfide to Cys, [N-]=[N+]=Nc1ccc(C(=O)NCCCCNC(=O)CCS*)c(O)c1; 125I = [125I]*

T1: AtPEPR1 (Arabidopsis thaliana, UniProt Q9SSL9 29-1123, glycosylated (about 180 kD, about 150 kD after PNGase F))
T1 sequence: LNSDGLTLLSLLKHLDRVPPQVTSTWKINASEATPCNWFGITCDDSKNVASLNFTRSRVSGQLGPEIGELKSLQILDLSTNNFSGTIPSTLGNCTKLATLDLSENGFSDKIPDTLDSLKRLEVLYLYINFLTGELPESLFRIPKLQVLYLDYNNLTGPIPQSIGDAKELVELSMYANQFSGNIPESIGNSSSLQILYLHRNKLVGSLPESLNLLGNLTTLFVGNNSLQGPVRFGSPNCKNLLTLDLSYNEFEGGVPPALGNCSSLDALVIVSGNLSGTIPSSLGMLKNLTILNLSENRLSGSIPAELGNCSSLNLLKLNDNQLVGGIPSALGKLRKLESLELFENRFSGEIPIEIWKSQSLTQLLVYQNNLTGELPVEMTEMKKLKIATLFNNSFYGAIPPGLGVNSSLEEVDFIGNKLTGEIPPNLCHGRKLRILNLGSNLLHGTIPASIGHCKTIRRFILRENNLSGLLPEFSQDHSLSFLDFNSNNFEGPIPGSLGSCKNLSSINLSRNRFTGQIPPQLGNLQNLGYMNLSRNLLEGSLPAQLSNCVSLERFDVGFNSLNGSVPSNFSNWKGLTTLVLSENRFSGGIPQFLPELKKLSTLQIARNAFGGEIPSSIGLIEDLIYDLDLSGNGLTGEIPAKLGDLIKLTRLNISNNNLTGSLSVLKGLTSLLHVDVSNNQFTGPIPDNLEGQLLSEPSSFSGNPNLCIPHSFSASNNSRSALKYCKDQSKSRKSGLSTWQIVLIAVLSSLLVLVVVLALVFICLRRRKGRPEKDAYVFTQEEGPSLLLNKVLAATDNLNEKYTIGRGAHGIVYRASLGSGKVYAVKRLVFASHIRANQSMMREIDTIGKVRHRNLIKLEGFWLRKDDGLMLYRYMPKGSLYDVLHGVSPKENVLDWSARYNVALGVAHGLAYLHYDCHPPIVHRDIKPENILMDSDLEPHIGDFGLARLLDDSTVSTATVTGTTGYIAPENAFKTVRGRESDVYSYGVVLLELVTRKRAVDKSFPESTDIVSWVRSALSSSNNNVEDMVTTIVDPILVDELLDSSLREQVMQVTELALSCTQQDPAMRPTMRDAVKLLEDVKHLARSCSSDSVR

T2: AtPEPR2 (Arabidopsis thaliana, UniProt Q9FZ59 27-1088)
T2 construct: Coding region expressed under the CaMV 35S promoter in tobacco suspension-cultured cells; also called second AtPep1 receptor; At1g17750
T2 sequence: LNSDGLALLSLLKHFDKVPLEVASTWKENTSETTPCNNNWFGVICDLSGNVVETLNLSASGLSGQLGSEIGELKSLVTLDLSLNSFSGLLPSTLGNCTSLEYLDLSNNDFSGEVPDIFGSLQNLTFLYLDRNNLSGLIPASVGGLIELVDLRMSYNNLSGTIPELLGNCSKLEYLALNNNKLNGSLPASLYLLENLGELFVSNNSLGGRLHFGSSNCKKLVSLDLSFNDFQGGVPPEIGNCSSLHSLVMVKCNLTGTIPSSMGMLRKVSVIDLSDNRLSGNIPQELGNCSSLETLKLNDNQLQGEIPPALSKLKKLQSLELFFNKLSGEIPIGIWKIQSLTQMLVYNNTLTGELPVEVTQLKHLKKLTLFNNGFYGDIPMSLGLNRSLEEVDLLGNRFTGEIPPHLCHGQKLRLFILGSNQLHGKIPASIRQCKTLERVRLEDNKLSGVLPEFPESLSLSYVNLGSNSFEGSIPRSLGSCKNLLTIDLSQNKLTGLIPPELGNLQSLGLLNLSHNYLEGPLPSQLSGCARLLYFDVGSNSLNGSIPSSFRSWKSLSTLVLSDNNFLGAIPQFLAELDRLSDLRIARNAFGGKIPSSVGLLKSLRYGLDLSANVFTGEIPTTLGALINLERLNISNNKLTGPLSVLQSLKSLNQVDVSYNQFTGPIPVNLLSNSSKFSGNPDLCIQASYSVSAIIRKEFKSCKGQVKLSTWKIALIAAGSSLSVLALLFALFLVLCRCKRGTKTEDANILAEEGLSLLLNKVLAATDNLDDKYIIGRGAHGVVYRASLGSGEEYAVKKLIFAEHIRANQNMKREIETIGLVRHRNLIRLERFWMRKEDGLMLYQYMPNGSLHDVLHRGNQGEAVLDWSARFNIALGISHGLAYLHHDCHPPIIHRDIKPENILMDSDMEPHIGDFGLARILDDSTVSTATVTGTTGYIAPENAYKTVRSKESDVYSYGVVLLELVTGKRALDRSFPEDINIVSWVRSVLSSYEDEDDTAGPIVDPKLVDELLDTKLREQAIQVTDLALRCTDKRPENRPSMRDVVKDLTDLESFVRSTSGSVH

B1: AtPep1 (peptide)
peptide: ATKVKAKQRGKEKVSSGRPGQHN
notes: 23 amino acid peptide, chemically synthesized, not post-translationally modified; also called Arabidopsis Peptide 1; native AtPep1

Columns and labels:
OsPEPR1 (rice) = experiment: cell-based or functional assay
AtPEPR1 [1] = target: T1, AtPEPR1; experiment: cell-based or functional assay
AtPEPR2 [2] = target: T2, AtPEPR2; experiment: sub-heading of Example 9, supported by alkalinization and photoaffinity labeling of transgenic tobacco cells
Protocol: To clarify whether AtPEPR2 binds to AtPep1, the AtPEPR2 coding region was fused to the CaMV 35S promoter and introduced into tobacco suspension-cultured cells by Agrobacterium. Tobacco cells expressing AtPEPR1 and GUS genes were also created as positive and negative controls, respectively. […] These transgenic lines were analyzed for alkalinizing activity as previously described (Pearce et al., Proc. Natl. Acad. Sci. USA 98, 12843-12847, 2001). […] The level of response to AtPep1 for the AtPEPR2-expressing cells was similar to that of AtPEPR1-expressing cells and to Arabidopsis cells (Yamaguchi et al., Proc. Natl. Acad. Sci. USA 103: 10104-10109, 2006, Huffaker et al., Proc. Natl. Acad. Sci. USA 103: 10098-10103, 2006), with a maximal change of 1-1.2 pH units and a half-maximal peptide activity of 0.25 nM.
(§1) For final confirmation, a photoaffinity-labeling experiment was performed using the transgenic tobacco cells. […] After separation of extracted proteins by SDS-PAGE, the labeled proteins were detected on X-ray film. […] Since no specific labeling was detected in wild type tobacco and GUS expressing cells, the proteins labeled specifically by ¹²⁵I₁-azido-Cys-AtPep1 in AtPEPR1 and AtPEPR2 expressing cells were products from the AtPEPR1 and AtPEPR2 genes.

AtPEPR1 [3] = target: T1, AtPEPR1; experiment: saturation binding of radiolabeled peptide to Arabidopsis suspension cultured cells, Scatchard analysis
From the text: An analog of AtPep1 was synthesized with a Tyr residue attached to its N-terminus and radiolabeled with ¹²⁵I to quantify binding. The Tyr analog and mono- and di-iodo-Tyr-AtPep1 analogs were separated by HPLC, and the concentration-dependent activities of AtPep1 and these analogs where tested in the alkalinization assay. […] The mono-iodinated Tyr-AtPep1 comprised about 95% of the iodinated proteins and was employed for binding studies.

AtPEPR1 [4] = target: T1, AtPEPR1; experiment: photoaffinity labeling (0.25 nM) of transgenic tobacco cells expressing AtPEPR1, SDS-PAGE and X-ray film
Protocol: (§2) This wash was repeated twice. The cells were resuspended in 1 mL MS medium and irradiated with UV-B for 10 min on ice to photoactivate the azido group to effect the crosslinking. The cells were washed with 1 mL MS medium, centrifuged as above, and resuspended in 400 μL of 5% SDS. The cells were disrupted by boiling for 30 min, and the insoluble debris was removed by centrifugation at 10,000×g. […] After centrifugation at 10,000×g, the pellet was recovered and dissolved in 100 μL of Laemmli sample buffer containing 5% SDS, boiled for 10 min, and separated using 8% SDS-PAGE. The gels were dried and exposed to X-ray film for 50 hr to visualize labeled proteins. In competition assays, unlabeled AtPep1 and suramin were added to the cells and incubated for 10 min before adding ¹²⁵I-azido-Cys-AtPep1. The same procedures described above were employed to detect labeled proteins.
as §1

AtPEPR2 [5] = target: T2, AtPEPR2; experiment: photoaffinity labeling (0.25 nM) of transgenic tobacco cells expressing AtPEPR2, SDS-PAGE and X-ray film
Protocol: as §2, §1

change in medium pH of transgenic tobacco cells expressing AtPEPR1 at 2.5 nM peptide (AtPEPR1 [1]) [pH units] | half-maximal activity, alkalinization of tobacco cells expressing AtPEPR1 (AtPEPR1 [1]) [nM] | maximal change of medium pH, tobacco cells expressing AtPEPR1 (AtPEPR1 [1]) [pH units] | other results | Molecule
 |  |  | half-maximal activity, alkalinization of tobacco cells expressing OsPEPR1 (OsPEPR1 (rice)): 0.25 nM; medium pH increase, tobacco cells expressing OsPEPR1 (OsPEPR1 (rice)): 1.2 pH unit | ZmPep4a (peptide)
 |  |  | half-maximal activity, alkalinization of tobacco cells expressing OsPEPR1 (OsPEPR1 (rice)): 0.25 nM; medium pH increase, tobacco cells expressing OsPEPR1 (OsPEPR1 (rice)): 1.2 pH unit | OsPep3a (peptide)
≤ 0.6 | 0.25 | 1.2 |  | SLNVMRKGIRKQPVSSGKRGGVN [AtPep2]
 | 2.5 |  |  | VSGNVAARKGKQQTSSGKGGGTN [AtPep7]
≤ 0.6 | 0.25 | 1.2 |  | ITAVLRRRPRPPPYSSGRPGQNN [AtPep6]
 | 0.25 | 1.2 | binding result (AtPEPR2 [2]): binds | B1
≤ 0.6 | 0.25 | 1.2 |  | GLPGKKNVLKKSRESSGKPGGTN [AtPep5]
 | 2.5 |  |  | EIKARGKNKTKPTPSSGKGGKHN [AtPep4]
 |  |  | Kd (AtPEPR1 [3]): 0.25 nM | Y(125I)ATKVKAKQRGKEKVSSGRPGQHN (also called mono-iodinated Tyr-AtPep1) [125I1-Tyr-AtPep1]
 |  |  | binding result (AtPEPR1 [4]): binds; binding result (AtPEPR2 [5]): binds | C(APDP)ATKVKAKQRGKEKVSSGRPGQHN (also: mono-iodinated with 125I, site not given here, also called 125I1-azido-Cys-AtPep1) [125I-azido-Cys-AtPep1]
